According to US20190016790A1 (MEDICINAL BIOCONVERGENCE RESEARCH CENTER, published 2019):
Each block holds one binder with its values, some of them ahead of it.

How the values were obtained:
[1] = molecular target: T1, recombinant PICP protein (procollagen type I C-terminal propeptide), heterotrimer of two PICP α1 chains and … (human, UniProt P02452 1219-1464; P08123 1120-1366); experiment: indirect ELISA, PICP coated at 2 ug/ml, anti-HA-HRP
T1 construct: Biotinylated for the yeast Fab selection; also called recombinant PICP antigen; PIPC; not shown: 8xHis tag conjugated to the N-terminus of the α1 chain; c-Myc tag conjugated to the N-terminus of the α2 chain

[2] = molecular target: T1, recombinant PICP protein (procollagen …); experiment: yeast surface Fab display, MACS and FACS with biotinylated PICP
Method: A method of selecting clones specifically binding to PICP proteins from the yeast Fab library are as follows: Antigen protein PICP and similar protein PIIICP were prepared with purity of 99% or higher by the method of the present invention. The PICP proteins were conjugated to biotin using a kit (EZ-LINKTMSulfo-NHS-LC-Biotinylation kit, Pierce Inc., USA). Thereafter, a procedure of screening the constructed libraries using MACS and FACS and analyzing the induced pool was repeated. Through this, the expression level of antibody Fab and the binding affinity of biotinylated PICP can be analyzed.
The biotinylated PICP (500 nM) was conjugated to Fab library expressed on the yeast cell surface at 25° C. for 1 hour. The Fab library incubated with PICP was conjugated with streptavidin-microbead (Miltenyi Biotec Inc., Germany) at 4° C. for 10 minutes, and then clones conjugated with the biotinylated PICP were selected using magnetic-activated cell sorting (MACS). […] Thereafter, FACS procedure was twice repeated using biotinylated PICP with concentrations of 250 nM and 100 nM. […]

[3] = molecular target: T1, recombinant PICP protein (procollagen …); experiment: SPR, Biacore 2000, PICP immobilized (185 RU), IgG 6.25-100 nM
Excerpt: Specific experiment conditions are as follows.
The affinity was obtained from kinetic rate constants (ka and kd) and equilibrium dissociation constants (KD) using BIA evaluation ver. 3.2 software.

[4] = molecular target: T2, recombinant procollagen type III C-terminal propeptide (PIIICP), His-tagged (UniProt P02461 1222-1466); experiment: sandwich ELISA, 2D IgG coated at 16 ug/ml as capture antibody, PIIICP titrated, rabbit anti-PICP antibody and goat anti-rabbit IgG-HRP for detection
T2 construct: domain: C-terminal propeptide; Made in HEK293F cells in the same way as PICP; also called comparative antigen; not shown: His tag conjugated to the PIIICP protein
T2 sequence (looked up): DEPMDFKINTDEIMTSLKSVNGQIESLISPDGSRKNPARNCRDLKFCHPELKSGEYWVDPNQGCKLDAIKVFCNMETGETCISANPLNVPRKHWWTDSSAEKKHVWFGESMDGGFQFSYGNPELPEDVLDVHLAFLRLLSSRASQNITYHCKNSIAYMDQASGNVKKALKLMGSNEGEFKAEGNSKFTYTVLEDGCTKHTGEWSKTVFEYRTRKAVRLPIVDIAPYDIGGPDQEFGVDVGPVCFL

[5] = molecular target: T2, recombinant procollagen type III …; experiment: indirect ELISA, PIIICP coated at 2 ug/ml, anti-human IgG-HRP
Method: PICP and PIIICP antigens prepared in <Example 1> were immobilized at a concentration of 2 ug/ml on microtiter plates at room temperature for 1 hour, and blocked with 1×PBST containing 2% skim milk at room temperature for 1 hour. 2D IgG and 4G IgG were serially diluted within a range of 15.625-1000 ng/ml, and added at 100 μl per well to the blocked plates, followed by incubation at room temperature for 1 hour. Human IgG-HRP antibodies (Millipore, 1:2,000) as secondary antibodies were added at 10 μl per well, followed by incubation at room temperature for 1 hour. The incubated microtiter plates were washed three or four times with 1×PBST, and then TMB solution was added at 50 μl per well to conduct a color development reaction at room temperature for 5-10 minutes. The color development reaction was stopped using H₂SO₄ (1 M), and then the absorbance was read at 450 nm using ELISA reader.

[6] = molecular target: T3, recombinant PICP α2 chain (c-Myc tag at the N-terminus) (human, UniProt P08123 1120-1366); experiment: Western blot (anti-His, anti-c-Myc) of Ni/NTA-purified recombinant PICP, non-reducing and reducing SDS-PAGE
T3 construct: Co-expressed with the α1 chain in HEK293F cells; also called recombinant procollagen α2 chain; not shown: c-Myc tag at the N-terminus
T3 sequence: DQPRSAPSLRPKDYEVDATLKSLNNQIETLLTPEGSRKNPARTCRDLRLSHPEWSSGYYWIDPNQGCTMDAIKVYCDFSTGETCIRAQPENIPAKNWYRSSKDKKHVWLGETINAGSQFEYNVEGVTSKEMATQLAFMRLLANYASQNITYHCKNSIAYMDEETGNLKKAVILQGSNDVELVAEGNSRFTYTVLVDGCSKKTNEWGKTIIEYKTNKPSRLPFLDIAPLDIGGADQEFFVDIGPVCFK
Method: The pSecTag2A-PICP α1 vector and the pSecTag2A-PICP α2 vector were mixed at a molar ratio of 2:1, and co-transfected into HEK293F cells. The co-transfected cells were cultured for 7 days, and culture supernatants were harvested, and the proteins were isolated and purified by the same method as in example <1-2>. PIIICP protein was also expressed, isolated, and purified by the same method. The sizes and purities of the purified proteins were analyzed using SDS-PAGE and western blotting (anti-His tag, anti-c-Myc tag) in reducing or non-reducing conditions.

[7] = molecular target: T1, recombinant PICP protein (procollagen …); experiment: sandwich ELISA, IgG coated as capture antibody, PICP titrated, polyclonal PICP antibody and anti-rabbit-HRP for detection
Method: The binding specificity to PICP by IgG fragment having VH and VL of clones 1 and 2 (referred to as clone IgG and clone 2 IgG) was investigated by sandwich ELISA (FIG. 9).
2D, 4G, clone 1, clone 2 IgG antibodies as capture antibodies were coated on the microtiter plates, and PICP and PIIICP as antigens were added to each well (100 μl/well) at different concentrations, followed by incubation for 1 hour. After washing with 1×PBST (0.05 Tween 20), detection antibodies (polyclonal PICP antibodies) were diluted with 1×PBST, and added in 100 μl for each, followed by incubation for 1 hour. After washing with 1×PBST, rabbit-HRP (Millipore) antibodies were diluted with 1×PBST, and added in 100 μl for each, followed by incubation for 1 hour. After washing with 1×PBST, TMB solution was added to each well (50 μl/well) to investigate a color development reaction, and then the reaction was stopped by addition of 50 μl of 2N stop solution (H₂SO₄). The absorbance was read at a wavelength of 450 nm using ELISA reader (reference 620 nm).

B1: 2D scFv (scFv)
chain: EVQLLESGGGLVQPGGSLRLSCAASGFTFSSYYMSWVRQAPGKGLEWVSGISPGSGSKYYADSVKGRFTISRDNSKNTLYLQMNSLRAEDTAVYYCARATVPCKGPACYSAYGMDVWGQGTLVTVSSGGGGSGGGGSGGGGSQSVLTQPPSAPGTPGQRVTISCSGSSSNIGNNAVNWYQQLPGTAPKLLIYSNSHRPSGVPDRFSGSKSGTSASLAISGLRSEDEADYYCGSWDASLNGYVFGGGTKLTVLG
EC50 (read off the curve) [1]: ~0.3 µg/mL

B2: 4G scFv (scFv)
chain: EVQLLESGGGLVQPGGSLRLSCAASGFTFSNYYMSWVRQAPGKGLEWVSLISSGNGNKYYADSVKGRFTISRDNSKNTLYLQMNSLRAEDTAVYYCARGSRRCSGAPCYSAYGMDVWGQGTLVTVSSGGGGSGGGGSGGGGSQSVLTQPPSASGTPGQRVTISCTGSSSNIGNNSVTWYQQLPGTAPKLLIYANSQRPSGVPDRFSGSKSGTSASLAISGLRSEDEADYYCGAWDDSLNAYVFGGGTKLTVLG
EC50 (read off the curve) [1]: ~0.1 µg/mL

B4: 2D IgG (antibody, V domains shown)
VH: EVQLLESGGGLVQPGGSLRLSCAASGFTFSSYYMSWVRQAPGKGLEWVSGISPGSGSKYYADSVKGRFTISRDNSKNTLYLQMNSLRAEDTAVYYCARATVPCKGPACYSAYGMDVWGQGTLVTVSS
VL: QSVLTQPPSAPGTPGQRVTISCSGSSSNIGNNAVNWYQQLPGTAPKLLIYSNSHRPSGVPDRFSGSKSGTSASLAISGLRSEDEADYYCGSWDASLNGYVFGGGTKLTVLG
notes: IgG made from 2D scFv VH and VL in pcDNA3.4 and expressed in 293F cells; Detected with human IgG-HRP; also called IgG containing the variable regions of clone 2D
Kd [3]: 11.6 nM
koff [3]: 0.00276 s⁻¹
kon [3]: 237000 M⁻¹ s⁻¹
binding result [4]: no binding (tested: 100 ng/ml)

B8: clone 1 IgG (antibody, V domains shown)
VH: EVQLVESGGGLVQPGGSLRLSCAASGFTFSYYWMSWVRQAPGKGLEWVSTISYGGGGKYYADSVKGRFTISRDNSKNTLYLQMNSLRAEDTAVYYCVRSYGAIPPNTIDYWGQGTLVTVSS
VL: DIQMTQSPSSLSASVGDRVTITCRASQGISSDLAWYQQKPGKAPKLLIYAASSLQSGVPSRFSGSGSGTDFTLTISSLQPEDFATYYCQQPYSTPSTFGQGTKVEIKR
notes: Chimeric: human Fab VH and VL of yeast clone 1 on mouse IgG2a heavy chain constant domains and mouse kappa light chain; also called clone IgG
binding result [7]: binds

B9: clone 2 Fab (Fab, V domains shown)
VH: EVQLVESGGGLVQPGGSLRLSCAASGFTFSSYWMSWVRQAPGKGLEWVSVISYDGGNKYYADSVKGRFTISRDNSKNTLYLQMNSLRAEDTAVYYCAKWANDHNSDLNFDYWGQGTLVTVSS
VL: DIQMTQSPSSLSASVGDRVTITCRASQGISTDLGWYQQKPGKAPKLLIYAASSLESGVPSRFSGSGSGTDFTLTISSLQPEDFATYYCQQHDSYPTTFGQGTKVEIK
binding result [2]: binds

Second part, the binder after the results:

binding result [2]: binds
B3: clone 1 Fab (Fab, V domains shown)
VH: EVQLVESGGGLVQPGGSLRLSCAASGFTFSYYWMSWVRQAPGKGLEWVSTISYGGGGKYYADSVKGRFTISRDNSKNTLYLQMNSLRAEDTAVYYCVRSYGAIPPNTIDYWGQGTLVTVSS
VL: DIQMTQSPSSLSASVGDRVTITCRASQGISSDLAWYQQKPGKAPKLLIYAASSLQSGVPSRFSGSGSGTDFTLTISSLQPEDFATYYCQQPYSTPSTFGQGTKVEIK

Kd [3]: 16.8 nM
koff [3]: 0.00319 s⁻¹
kon [3]: 190000 M⁻¹ s⁻¹
binding result [5]: no binding (tested: 1000 ng/ml)
B5: 4G IgG (antibody, V domains shown)
VH: EVQLLESGGGLVQPGGSLRLSCAASGFTFSNYYMSWVRQAPGKGLEWVSLISSGNGNKYYADSVKGRFTISRDNSKNTLYLQMNSLRAEDTAVYYCARGSRRCSGAPCYSAYGMDVWGQGTLVTVSS
VL: QSVLTQPPSASGTPGQRVTISCTGSSSNIGNNSVTWYQQLPGTAPKLLIYANSQRPSGVPDRFSGSKSGTSASLAISGLRSEDEADYYCGAWDDSLNAYVFGGGTKLTVLG
notes: IgG made from 4G scFv VH and VL in pcDNA3.4 and expressed in 293F cells; Detected with human IgG-HRP; also called IgG containing the variable regions of clone 4G

binding result [6]: binds
B6: recombinant PICP α1 chain (8xHis tag at the N-terminus) (other)
chain: DDANVVRDRDLEVDTTLKSLSQQIENIRSPEGSRKNPARTCRDLKMCHSDWKSGEYWIDPNQGCNLDAIKVFCNMETGETCVYPTQPSVAQKNWYISKNPKDKRHVWFGESMTDGFQFEYGGQGSDPADVAIQLTFLRLMSTEASQNITYHCKNSVAYMDQQTGNLKKALLLQGSNEIEIRAEGNSRFTYSVTVDGCTSHTGAWGKTVIEYKTTKTSRLPIIDVAPLDVGAPDQEFGFDVGPVCFL
notes: Co-expressed with the α2 chain in HEK293F cells; also called recombinant procollagen α1 chain; not shown: 8xHis tag at the N-terminus

binding result [7]: binds
B7: clone 2 IgG (antibody, V domains shown)
VH: EVQLVESGGGLVQPGGSLRLSCAASGFTFSSYWMSWVRQAPGKGLEWVSVISYDGGNKYYADSVKGRFTISRDNSKNTLYLQMNSLRAEDTAVYYCAKWANDHNSDLNFDYWGQGTLVTVSS
VL: DIQMTQSPSSLSASVGDRVTITCRASQGISTDLGWYQQKPGKAPKLLIYAASSLESGVPSRFSGSGSGTDFTLTISSLQPEDFATYYCQQHDSYPTTFGQGTKVEIKR
notes: Chimeric: human Fab VH and VL of yeast clone 2 on mouse IgG2a heavy chain constant domains and mouse kappa light chain
